Reference: PMC11848413, “Bacterial polysaccharide lyase family 33: Specificity from an evolutionarily conserved binding tunnel” (Proceedings of the National Academy of Sciences of the …, 2025)

B1: HMPREF1181_01744 (BsPL33^Heparosan), PL33_1 heparosanase from Bacteroides stercoris CC31F (enzyme)
chain: TERHLLEQTVSYEELGNVLRYRQSWVDYPAYTDRKSWKEKTAPEMRELIIRNGERALKHEWKPDLASDYLAFKRTGEIRTGRANHKALQALTLAELVEGQGRFMDAIIDGIWFLCETSWIHSAHLGFQKDRSGLPDRNEPTIELVVADIGAQMAWTYYFLKDEFDKVSPLINERIIEEVNRNLINPYFARDDYWWMGFGGQQVNNWNPWINYNVLQALMLIEKDPERVRQGVWKLMKSTDFFFSMYHEDGACDEGPTYWSGASGYALKFLDLLAKVTGNKVNIFNAPLLRNMAQYIYRVHIGGNYFVNFADSAPKVSPSPGILYRYGELTGDPAMMKFASFMAQQNQSFKDGVNGYFASALDELFMYKDIIGHPQGEPLTGTYWFKDTQICVARDTEGKSDGFFFAAKGGNNQESHNHNDVGSCILYYNALPVLIDAGVGTYTRQTFGPERYTIWTMQSDYHNLPLINGTPQKNGREFAAHSQQYKATAKTVSYQVDIAHAYPQEANVKSWIRNYTLHRKKDFTITDKWKLSACNEPSVLNLMTCCEVEIDRNKNITLTGEAGRFRVEYDKKLLSPATDTVELTDPKLIHSWNRKKLTRIRFTIVSQQISGESKLVIRKAQYHKTLND
B2: BcellWH2_04512 (BcPL33^HA), PL33_1 hyaluronidase from Bacteroides cellulosilyticus WH2 (enzyme)
chain: YTERNLLQKAAGSEEQLKEALVMNQKWVPYPAYNDRAGWNELLGTNKESLIRAGEKMLNYEWKVIRATDYLEYERSGERNIMQNPYEANRKAINALMLAELAEGKGRFIDQLINGAFYSCEMTSWVLSAHLVRQSTKRSLPDYREQVIDLGSGNFGSMLSWVYYFFHDSFDKIDPVISQRLRHTLQERILDPYMNNDREWWMAFQWKPGMIINNWNPWCNSNVLQCYLLLENDRDRLAKAVWRSMQSVDKFINFVKADGACEEGPSYWGHAAGKMYDYLQILSDGTDGKVSLFKEPMIRRMGEYISRTYVGNGWVVNFADASAKGGGDAPLIYRYGRAVGSEEMMQFAAYLLDGKRPSVPLGNDTFRSLQSILWNGELEKTTAAHTIPACTWYPETEFCYLTNKSGWFLATKGGFNNESHNHNDVGTFSLYVNTIPVLIDAGVGTYTRQTFSSERYTIWTMQSNYHNLPMINGVPQSFGQNYKATDVVCQPKKRFFSANIATAYPKEAEVNSWTRAYSLGDKQLTITDNFSLKSAKESNQVNFLTWGKVDISVPGKVTIDVQGQKVTLEYPGEFTATVETINLPDTRLSNVWGTEIYRIALKDKDARLTGKYKFVIK
notes: BcellWH2_04512, polysaccharide lyase family 33 subfamily 1 hyaluronidase of Bacteroides cellulosilyticus WH2; 68% identical to BtPL33^HA; Cloned in pET28a with either an N- or a C-terminal His6 tag; source: E. coli BL21 (DE3) or TUNER, purified (Talon cobalt IMAC, S200 Superdex SEC)

Experiments:
[1] = biological target: BT4410 (BtPL33^HA), PL33_1 hyaluronidase from Bacteroides thetaiotaomicron VPI-5482 (Bacteroides thetaiotaomicron VPI-5482); assay: SEC-MALS + other: SAXS; SEC-coupled light scattering and SAXS of the purified enzyme in solution, oligomeric state; conditions not shown (SI Appendix)
[2] = biological target: the molecule itself; assay: as above

Row | Molecule | stoichiometry N [1] | stoichiometry N [2]
1 | BT4410 (BtPL33^HA), PL33_1 hyaluronidase from Bacteroides thetaiotaomicron VPI-5482 (enzyme) | 2 | –
2 | B1 | – | 2
3 | B2 | – | 2
